Experimental data published in patent US9326950B2, “Self-assembling nanoparticles composed of transmembrane peptides and their application for specific intra-tumor delivery of anti-cancer drugs” (The United States of America, as represented by the …, priority 2006, dated 2016).
Where no end group is shown, it is not given here.

What was measured:
[1] = Fluorescence energy transfer between WMC77 and Alexa 546-labeled nanoparticles; format: physicochemical; conditions: WMC77 final concentration 300 nM
[2] = Multi-angle light scattering, molecular weight of peptide aggregates and degree of aggregation; format: physicochemical; conditions: for MW (g/mol): 0.1 M Tris-HCl pH 7.2
Description: To determine the influence of hydrophilic tail length on nanoparticle aggregation, the degree of aggregation was determined by multi-angle light scattering for TM peptides with the amino acid sequences of SEQ ID NO: 1; SEQ ID NO: 1-PEG11; SEQ ID NO: 1-PEG27; SEQ ID NO: 1-PEG38; and SEQ ID NO: 1-GGGGG.
The peptides were dissolved in DMSO and diluted with 0.1 M Tris-HCl buffer (pH 7.2) to provide 0.4 mg/ml peptide solutions. This was used for further dilutions. The final concentration of DMSO was either 2.5% or 1.25% (kept constant for all dilutions in the series). The samples were sonicated at maximum intensity for 10 minutes and left at room temperature overnight (about 20 hours before measurements). The following day, the samples were centrifuged at 13200 rpm for 30 minutes.
Light scattering (LS) studies were performed by a DAWN EOS multi-angle detector (Wyatt Technology Corp., Santa Barbara, Calif.) at a laser wavelength of 690 nm. The LS detector was connected with an Agilent 1100 HPLC system (Agilent Technologies, Palo Alto, Calif.). The MALS detector was calibrated with HPLC grade toluene, 99.8% (Aldrich Chemicals, Milwaukee, Wis.), which was filtered through a […] Anotop-25 inorganic membrane filter and then normalized with albumin (bovine) 98% monomer (Sigma Chemicals, St. Louis, Mo.). The data were collected and processed using Astra software (Wyatt Technology Corp.; version 4.90.04).
To determine the molecular weight of the peptide aggregates and the aggregation state, LS micro-batch measurements were performed. In brief, solvent was delivered through the HPLC system, bypassing the column compartment, at a flow rate of 0.05 ml/min. 900 μl samples with different peptide concentrations were injected through the HPLC autosampler. Four peptide concentrations were analyzed (i.e., 0.05 mg/ml, 0.1 mg/ml, 0.2 mg/ml, and 0.4 mg/ml). The concentrations were determined from weight measurements, since strong light scattering made traditional UV-absorbance determination inaccurate. The LS signal was collected for each concentration. Molecular weight was determined for each concentration separately using Astra software with a Debye plot and the Zimm equation. A single slice of collected signal giving the smallest error was chosen for molecular weight calculation at each concentration.

[3] = Transmission electron microscopy of peptide nanoparticles; format: physicochemical; conditions: negative charges replaced by positive charges
Description: Peptides were solubilized in DMSO to yield 32 mg/ml solution. DMSO stocks were diluted with phosphate buffered saline (PBS) to produce 0.05-0.5 mg/ml solutions. Two μl of a sample were applied directly on microscopy grids, air-dried, stained with 0.5% (w/v) osmium tetroxide (OsO4), and visualized with a Hitachi H-7000 electron microscope.

[4] = WMC77 fluorescence emission with increasing amounts of nanoparticles; format: physicochemical; conditions: increasing amounts of the nanoparticles
Description: FIG. 1 is a graph of fluorescence emission intensity (a.u.) versus concentration (mg/ml) of nanoparticles comprising SEQ ID NO: 1-PEG11 (represented by circles) or SEQ ID NO: 1-PEG38 (represented by open squares).
FIG. 2 is a graph of wavelength maximum (nm) versus concentration (μM) of nanoparticles comprising SEQ ID NO: 1-PEG11 (represented by circles) or SEQ ID NO: 1-PEG38 (represented by open squares).
Various amounts of nanoparticles (SEQ ID NO:1-PEG11 or SEQ ID NO 1-PEG38) were added to solutions of WMC77. The fluorescence emission intensity and shift in emission maxima were measured with the results depicted in FIGS. 1 and 2.

[5] = system: MDA-MB-231 breast cancer cells; test: Survival in mouse model of breast cancer lung metastasis; format: in vivo, nude mice
Description: FIG. 3 is a graph of percent survival (%) versus days on treatment for three groups of nude mice intravenously injected with one million MDA-MB-231 breast cancer cells. On the day following the intravenous injection with the breast cancer cells and continuing twice weekly, the mice were intraperitoneally injected with (1) PBS only (Control); (2) 3 mg/kg of nanoparticles of SEQ ID NO: 1-PEG27 dissolved in PBS (X4-4-6, 3 mg/kg); or (3) 12 mg/kg of nanoparticles of SEQ ID NO: 1-PEG27 dissolved in PBS (X4-4-6, 12 mg/kg).
One million MDA-MB-231 breast cancer cells were injected in nude mice intraveneously on Day 0. On Day 1 and continuing twice weekly, mice were intraperitoneally injected with (1) 3 mg/kg of nanoparticles of the TM peptide of SEQ ID NO: 1-PEG27 dissolved in PBS; (2) 12 mg/kg of nanoparticles of the TM peptide of SEQ ID NO: 1-PEG27 dissolved in PBS; or (3) a control (PBS only).

[6] = system: MDA-231 breast cancer cells; conditions: mouse, in vivo
Description: A CXCR4-TM domain 2-derived pegylated peptide labeled with Alexa546 fluorescent dye was prepared. […] Ten μl of peptide were diluted with 630 μl PBS (to produce 2 mg/ml peptide solution), sonicated for 10 minutes, and used for intratumoral injection.
Nude mice were inoculated in a breast pad with one million MDA-231 breast cancer cells. Six weeks later, when tumor sizes reached about 5 mm in diameter, 0.1 ml of 2 mg/ml solution of the fluorescent nanoparticles in PBS were injected into a breast pad near the tumor.
Whole animals and excised tumors were imaged utilizing the Maestro 420 In-Vivo Spectral Imaging System (Cambridge Resources and Instrumentation, Inc.).

[7] = aggregate MW at 0.05 mg/ml peptide
[8] = aggregate MW at 0.1 mg/ml peptide
[9] = aggregate MW at 0.2 mg/ml peptide
[10] = aggregate MW at 0.4 mg/ml peptide
[11] = 3 mg/kg intraperitoneally twice weekly
[12] = 12 mg/kg intraperitoneally twice weekly

Molecule: NCCCN1CCN(CCCNc2ccc3ncn4c5ccccc5c(=O)c2c34)CC1 [WMC77, 5-{3-[4-(aminopropyl)-piperazin-1-yl]-propylamino}-2,10b-diaza-aceanthrylen-6-one, reference compound]
- Fluorescence Intensity (a.u.) of WMC77 solutions ([1]; No TM peptide): 622 a.u.

Molecule: LLFVITLPFWAVDAVANWYFGNDD [SEQ ID NO: 1]
- N, degree of aggregation (molecules per particle) ([2]; 0.05 mg/ml peptide): 4090 molecules per particle
- N, degree of aggregation (molecules per particle) ([2]; 0.1 mg/ml peptide): 2478 molecules per particle
- N, degree of aggregation (molecules per particle) ([2]; 0.2 mg/ml peptide): 2494 molecules per particle
- MW (g/mol) [2, 7]: 11,400,000 ± 40,000 g/mol
- MW (g/mol) [2, 8]: 6,906,000 ± 22,000 g/mol
- MW (g/mol) [2, 9]: 6,952,000 ± 22,000 g/mol

Molecule: LLFVITLPFWAVDAVANWYFGNKK [SEQ ID NO: 6]
- particle size and uniformity [3]: much large particles with highly variable diameters

Molecule: SEQ ID NO: 1-GGGGG: TM peptide of SEQ ID NO: 1 with polyglycine tail GGGGG (LLFVITLPFWAVDAVANWYFGNDD; C-terminal GGGGG tail)
- N, degree of aggregation (molecules per particle) ([2]; 0.05 mg/ml peptide): 1614 molecules per particle
- N, degree of aggregation (molecules per particle) ([2]; 0.1 mg/ml peptide): 664 molecules per particle
- N, degree of aggregation (molecules per particle) ([2]; 0.2 mg/ml peptide): 282 molecules per particle
- N, degree of aggregation (molecules per particle) ([2]; 0.4 mg/ml peptide): 55 molecules per particle
- MW (g/mol) [2, 7]: 4,957,000 ± 8,000 g/mol
- MW (g/mol) [2, 8]: 2,041,000 ± 4,000 g/mol
- MW (g/mol) [2, 9]: 865,600 ± 2,700 g/mol
- MW (g/mol) [2, 10]: 169,700 ± 300 g/mol

Molecule: SEQ ID NO: 1-PEG11: TM peptide of SEQ ID NO: 1 with hydrophilic oligomer PEG11 added (LLFVITLPFWAVDAVANWYFGNDD; not fully specified; also: PEG11 added)
- emission maxima of WMC77 [4]: a shift in emission maxima
- fluorescence emission intensity of WMC77 [4]: an increase in fluorescence emission intensity
- N, degree of aggregation (molecules per particle) ([2]; 0.05 mg/ml peptide): 743 molecules per particle
- N, degree of aggregation (molecules per particle) ([2]; 0.1 mg/ml peptide): 316 molecules per particle
- N, degree of aggregation (molecules per particle) ([2]; 0.2 mg/ml peptide): 137 molecules per particle
- N, degree of aggregation (molecules per particle) ([2]; 0.4 mg/ml peptide): 54 molecules per particle
- MW (g/mol) [2, 7]: 2,515,000 ± 69,000 g/mol
- MW (g/mol) [2, 8]: 1,069,000 ± 20,000 g/mol
- MW (g/mol) [2, 9]: 463,800 ± 6,800 g/mol
- MW (g/mol) [2, 10]: 183,200 ± 900 g/mol

Molecule: SEQ ID NO: 1-PEG27: TM peptide of SEQ ID NO: 1 with hydrophilic oligomer PEG27 added; CXCR4 peptide nanoparticles (LLFVITLPFWAVDAVANWYFGNDD; not fully specified; also: PEG27 added)
- survival by Day 75 [5, 11]: about 40%
- survival by Day 91 [5, 11]: no surviving animals
- body weight [5, 12]: continued to gain weight
- survival by Day 75 [5, 12]: 100%
- survival until the end of the experiment (Day 140) [5, 12]: a significant number of the animals administered 12 mg/kg of nanoparticles survived
- N, degree of aggregation (molecules per particle) ([2]; 0.05 mg/ml peptide): 286 molecules per particle
- N, degree of aggregation (molecules per particle) ([2]; 0.1 mg/ml peptide): 176 molecules per particle
- N, degree of aggregation (molecules per particle) ([2]; 0.2 mg/ml peptide): 167 molecules per particle
- N, degree of aggregation (molecules per particle) ([2]; 0.4 mg/ml peptide): 90 molecules per particle
- MW (g/mol) [2, 7]: 1,171,000 ± 190,000 g/mol
- MW (g/mol) [2, 8]: 719,400 ± 100,700 g/mol
- MW (g/mol) [2, 9]: 682,000 ± 105,000 g/mol
- MW (g/mol) [2, 10]: 367,100 ± 38,400 g/mol

Molecule: SEQ ID NO: 1-PEG38: TM peptide of SEQ ID NO: 1 with PEG38, obtained by sequential coupling of PEG11 and PEG27 (LLFVITLPFWAVDAVANWYFGNDD; also: PEG38 added (PEG11 + PEG27))
- emission maxima of WMC77 [4]: a shift in emission maxima
- fluorescence emission intensity of WMC77 [4]: an increase in fluorescence emission intensity
- N, degree of aggregation (molecules per particle) ([2]; 0.1 mg/ml peptide): 93 molecules per particle
- N, degree of aggregation (molecules per particle) ([2]; 0.2 mg/ml peptide): 19 molecules per particle
- N, degree of aggregation (molecules per particle) ([2]; 0.4 mg/ml peptide): 24 molecules per particle
- MW (g/mol) [2, 8]: 436,100 ± 20,300 g/mol
- MW (g/mol) [2, 9]: 90,950 ± 9,210 g/mol
- MW (g/mol) [2, 10]: 110,500 ± 5,600 g/mol

Molecule: SEQ ID NO: 8-PEG27: deletion mutant lacking the five N-terminal amino acid residues of SEQ ID NO: 1, with PEG27 (TLPFWAVDAVANWYFGNDD; not fully specified; also: PEG27 added)
- N, degree of aggregation (molecules per particle) ([2]; 0.1 mg/ml peptide): 9 molecules per particle
- N, degree of aggregation (molecules per particle) ([2]; 0.2 mg/ml peptide): 10 molecules per particle
- N, degree of aggregation (molecules per particle) ([2]; 0.4 mg/ml peptide): 10 molecules per particle
- MW (g/mol) [2, 8]: 29,550 ± 4,630 g/mol
- MW (g/mol) [2, 9]: 32,660 ± 6,730 g/mol
- MW (g/mol) [2, 10]: 34,520 ± 7,850 g/mol

Molecule: TM peptide-Alexa conjugate: CXCR4-TM domain 2-derived pegylated peptide SEQ ID NO: 1-Peg11-Hcy-Peg27 labeled with Alexa546 fluorescent dye (LLFVITLPFWAVDAVANWYFGNDD; also: Peg11-Hcy-Peg27 attached, Alexa546 label)
- Fluorescence Intensity (a.u.) of WMC77 solutions ([1]; with additive): 295 a.u.
- penetration of tumor vasculature [6]: effectively penetrate tumor vasculature
